Reference: patent US20090269346A1 (RAPTOR PHARMACEUTICAL, published 2009)
Substitutions are numbered along the chain they refer to. Names may count otherwise.

T1: RAP-IDU (fusion of RAP and human α-L-iduronidase) (human, UniProt P35475 28-653, limits assumed)
T1 construct: iduronidase served as reporter
T1 sequence: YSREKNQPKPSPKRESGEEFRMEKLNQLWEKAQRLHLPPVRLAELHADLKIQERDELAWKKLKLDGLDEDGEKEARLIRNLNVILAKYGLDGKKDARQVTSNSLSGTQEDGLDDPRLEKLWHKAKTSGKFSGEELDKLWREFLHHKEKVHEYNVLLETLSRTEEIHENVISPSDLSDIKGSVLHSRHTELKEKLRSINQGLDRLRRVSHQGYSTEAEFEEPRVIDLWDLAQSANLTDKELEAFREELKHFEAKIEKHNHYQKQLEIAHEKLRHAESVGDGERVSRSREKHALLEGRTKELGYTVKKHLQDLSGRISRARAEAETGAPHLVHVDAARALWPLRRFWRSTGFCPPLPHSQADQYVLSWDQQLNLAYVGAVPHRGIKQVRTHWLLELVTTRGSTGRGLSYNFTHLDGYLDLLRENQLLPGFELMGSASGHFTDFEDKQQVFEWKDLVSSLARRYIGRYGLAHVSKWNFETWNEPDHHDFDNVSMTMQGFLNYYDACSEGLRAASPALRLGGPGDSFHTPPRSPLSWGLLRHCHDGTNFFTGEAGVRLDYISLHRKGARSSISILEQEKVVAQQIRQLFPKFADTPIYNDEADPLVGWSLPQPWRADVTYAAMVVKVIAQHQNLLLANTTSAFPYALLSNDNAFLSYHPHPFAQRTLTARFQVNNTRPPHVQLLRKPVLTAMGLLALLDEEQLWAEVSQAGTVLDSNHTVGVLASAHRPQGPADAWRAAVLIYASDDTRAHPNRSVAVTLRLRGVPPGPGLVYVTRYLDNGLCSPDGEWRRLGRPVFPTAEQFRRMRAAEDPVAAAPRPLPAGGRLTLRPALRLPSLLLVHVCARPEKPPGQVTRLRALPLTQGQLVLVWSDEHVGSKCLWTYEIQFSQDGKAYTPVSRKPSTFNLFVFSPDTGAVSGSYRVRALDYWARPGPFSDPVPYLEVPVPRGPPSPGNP

B1: RAP d3 E217K (ligand)
chain: LDRLRRVSHQGYSTEAKFEEPRVIDLWDLEQSANLTDKELEAFREELKHFEAKIEKHNHYQKQLEIAHEKLRHAESVGDGERVSRSREKHALLEGRTKELGYTVKKHLQDLSGRISRAR
notes: forward mutant of wild-type RAP d3; also called RAP E217K; not shown: vector-encoded N-terminal tags of pET30(+)a
B2: RAP d3 K256A, K270E (ligand)
chain: B1 chain with K17E, K56A, K70E
notes: forward mutant of wild-type RAP d3; also called RAP K256A, K270E; not shown: vector-encoded N-terminal tags of pET30(+)a
B3: RAP d3 E251K (ligand)
chain: B1 chain with K17E, E51K
notes: forward mutant of wild-type RAP d3; also called RAP E251K; not shown: vector-encoded N-terminal tags of pET30(+)a
B4: RAP d3 K270E (ligand)
chain: B1 chain with K17E, K70E
notes: forward mutant of wild-type RAP d3; also called RAP K270E; not shown: vector-encoded N-terminal tags of pET30(+)a
B5: RAP d3 H249Y (ligand)
chain: B1 chain with K17E, H49Y
notes: forward mutant of wild-type RAP d3; also called RAP H249Y; not shown: vector-encoded N-terminal tags of pET30(+)a
B6: RAP d3 E251K, K270E (ligand)
chain: B1 chain with K17E, E51K, K70E
notes: forward mutant of wild-type RAP d3; also called RAP E251K, K270E; not shown: vector-encoded N-terminal tags of pET30(+)a
B7: RAP d3 E251K, K256A, K270E (ligand)
chain: B1 chain with K17E, E51K, K56A, K70E
notes: forward mutant of wild-type RAP d3; also called RAP E251K, K256A, K270E; not shown: vector-encoded N-terminal tags of pET30(+)a
B8: LRP2 CR89 (receptor)
chain: not shown
notes: domain: CR8 and CR9; also called YVWR; L2 CR89; not shown: N-terminal hexahistidine and S-peptide from pET30(+)a
B9: VLDLR CR6-8 (receptor)
chain: not shown
notes: range 235-358; also called V CR6-8; not shown: N-terminal hexahistidine and S-peptide from pET30(+)a
B10: LRP6 CR1-3 (receptor, human, UniProt O75581 1247-1363, looked up)
chain: PTCSPQQFTCFTGEIDCIPVAWRCDGFTECEDHSDELNCPVCSESQFQCASGQCIDGALRCNGDANCQDKSDEKNCEVLCLIDQFRCANGQCIGKHKKCDHNVDCSDKSDELDCYPT
notes: range 1247-1363; also called L6 CR1-3; not shown: N-terminal hexahistidine and S-peptide from pET30(+)a
B11: LRP6 CR12 (receptor, human, UniProt O75581 1247-1322, looked up)
chain: PTCSPQQFTCFTGEIDCIPVAWRCDGFTECEDHSDELNCPVCSESQFQCASGQCIDGALRCNGDANCQDKSDEKNC
notes: range 1247-1322; also called L6 CR12; not shown: N-terminal hexahistidine and S-peptide from pET30(+)a

Target: T2, LRP1 CR3-5 (human)
T2 construct: range 852-973; Amplified from human cDNA; also called L1 CR3-5
Assay: solid-phase assay, coated CR protein, anti-RAP, OD450
Protocol: (§1) Percent of maximum binding is the ratio of the OD at the highest concentration tested for each ligand and the highest OD measured for all such ligands at that concentration.
(§2) Solid phase binding assays-Purified, refolded CR protein (1 μg) was bound to Nunc Maxisorp™ 96-well plates in TBS pH 8 supplemented with 5 mM CaCl₂ (TBSC) overnight at 4° C. Wells were washed with TBSC and then blocked with TBSC containing 2% bovine serum albumin (BSA). RAP ligands were then incubated with the immobilized receptor at a range of concentrations for 2 hours in the above blocking buffer supplemented with 0.05% Tween-20 at room temperature. Control wells contained no added ligand. As an additional control, to determine whether the absence of calcium affected binding, 10 mM EGTA was included in the incubation medium for some samples. Wells were washed with TBSTC and bound ligands detected with polyclonal anti-RAP (BP41/42, 1:1,000, BioMarin). Excess primary antibody was removed and wells washed before incubation with the secondary antibody, HRP-conjugated goat anti rabbit IgG (Bio-Rad). After washing, TMB substrate solutions (Bio-Rad) were added to detect HRP. Color development was stopped with 1N HCl. Absorption at 450 nm was measured with a microplate spectrophotometer (Molecular Devices). Data were plotted and Kd values derived by non-linear regression with the assumption of single-site binding (GraphPad Prism).
(§3) Next, binding of RAP d3 and RAPv2A d3 proteins to LRP1 CR3-5 and LRP2 CR89 was assessed. In order to understand the relative contributions of each RAPv2A d3 mutation to differences in affinity, we also prepared a number of RAPv2A d3 revertants and RAP d3 forward mutants, all comprising sequence variants intermediate between RAPv2A d3 and wild-type RAP d3 (FIGS. 7A and B, Table 1). Samples were tested in triplicate and experiments were repeated at least once. Values from different experiments were combined and a single mean and standard deviation obtained for each concentration of ligand tested.

T2 sequence (Q07954 852-973): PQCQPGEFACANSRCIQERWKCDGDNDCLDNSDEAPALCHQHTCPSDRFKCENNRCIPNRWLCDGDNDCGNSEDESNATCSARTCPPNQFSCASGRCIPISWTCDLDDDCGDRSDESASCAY

% max (percent of maximum binding)	Kd	Binder
91%	0.009 µM	B1
2%		B2
100%	0.007 µM	B3
4%		B4
90%	0.028 µM	B5
4%		B6
2%		B7

Target: B8
Assay: as above
Protocol: as §1, §2, §3

% max (percent of maximum binding)	Kd	Binder
5%		B1
3%		B2
5%		B3
2%		B4
2%		B5
2%		B6
40%	0.114 µM	B7

Target: T1, RAP-IDU (fusion of RAP and human …)
Assay: solid-phase assay: CR protein coated on the plate, RAP-IDU titrated, bound iduronidase activity read as rfu
Protocol: Initially, the binding of wild-type RAP to each CR pair or triplet was measured by solid-phase assay. Purified, refolded CR proteins were bound to Maxisorp plates during overnight incubation at 4° C. CR-loaded wells were blocked by resuspending in TBS Superblock (Pierce) supplemented with 5 mM CaCl2 (blocking buffer) and incubating for 1 hour at room temperature. Blocking buffer was removed and wells were washed once in TBS supplemented with 5 mM CaCl2 and 0.05% Tween-20 (wash buffer). Washed wells were incubated with 10 nM purified RAP-IDU (Tanimoto, et al., (2005) Br J Cancer 92, 278-283) for 2 hours at room temperature in blocking buffer. […] Wells were washed four times with wash buffer and resuspended in acidic PBS pH 5.6 supplemented with 200 μg/mL BSA (assay buffer). Iduronidase activity was measured as described previously using the fluorescent substrate 4-MU-α-L-iduronide (Tanimoto, et al., (2005) Br J Cancer 92, 278-283). No binding of RAP-IDU to empty wells was measured. […] RAP bound more weakly to other CR proteins, with dissociation constants from 30 to over 1000 nM.

Kd	Binder
0.029 µM	B8
0.17 µM	B9
0.328 µM	B10
> 1 µM	B11

Target: B8
Assay: solid-phase binding assay: CR protein coated on the plate, ligand titrated, anti-RAP polyclonal and HRP secondary, OD 450 nm
Protocol: as §2
as §3, with “tested. OD values from uncoated wells, receptor-coated wells incubated with buffer alone, and uncoated wells incubated with the highest ligand concentration all gave similar values for all conditions tested. All OD values were corrected by subtracting the OD obtained from uncoated wells.” for “tested.”

binding result	Binder
no binding (tested: 100 nM)	B1
no binding (tested: 100 nM)	B2
no binding (tested: 100 nM)	B3
no binding (tested: 100 nM)	B4
no binding (tested: 100 nM)	B5
no binding (tested: 100 nM)	B6
